Assay results from publication PMC4165444 (Biochemistry, 2014).

Target: the molecule itself
Test: crystal structure

B1: Saccharomyces cerevisiae alcohol dehydrogenase I (enzyme, UniProt P00330 1-348, looked up)
chain: MSIPETQKGVIFYESHGKLEYKDIPVPKPKANELLINVKYSGVCHTDLHAWHGDWPLPVKLPLVGGHEGAGVVVGMGENVKGWKIGDYAGIKWLNGSCMACEYCELGNESNCPHADLSGYTHDGSFQQYATADAVQAAHIPQGTDLAQVAPILCAGITVYKALKSANLMAGHWVAISGAAGGLGSLAVQYAKAMGYRVLGIDGGEGKEELFRSIGGEVFIDFTKEKDIVGAVLKATDGGAHGVINVSVSEAAIEASTRYVRANGTTVLVGMPAGAKCCSDVFNQVVKSISIVGSYVGNRADTREALDFFARGLVKSPIKVVGLSTLPEIYEKMEKGQIVGRYVVDTSK
modifications: disulfide bond between Cys-277 residues of the two subunits of a dimer
- stoichiometry N: 4 subunits per oligomer
